Data as given in paper PMC12428095.

Legend:
Conditions in all cases: EMSA: 20 nM probe, 10 mM Tris-HCl pH 7.5, 50 mM KCl, 10 mM MgCl2, 5% glycerol, 20 min at 4 C, 5% native PAGE in TGE pH 8.3; footprinting: same binding system …
[1] = system: T1, CopR1 (Pseudomonas putida KT2440), ORF:c26c307e; experiment: DNase I footprinting
T1 sequence: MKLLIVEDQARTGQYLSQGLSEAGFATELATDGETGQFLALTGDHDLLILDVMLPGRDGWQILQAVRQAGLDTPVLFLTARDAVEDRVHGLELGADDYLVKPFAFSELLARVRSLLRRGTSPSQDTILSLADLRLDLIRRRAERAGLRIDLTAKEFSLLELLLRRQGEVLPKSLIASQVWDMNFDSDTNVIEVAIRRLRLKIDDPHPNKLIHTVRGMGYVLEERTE

[2] = system: T2, CopR2 (Pseudomonas putida KT2440), ORF:6041cc23; experiment: DNase I footprinting
T2 sequence: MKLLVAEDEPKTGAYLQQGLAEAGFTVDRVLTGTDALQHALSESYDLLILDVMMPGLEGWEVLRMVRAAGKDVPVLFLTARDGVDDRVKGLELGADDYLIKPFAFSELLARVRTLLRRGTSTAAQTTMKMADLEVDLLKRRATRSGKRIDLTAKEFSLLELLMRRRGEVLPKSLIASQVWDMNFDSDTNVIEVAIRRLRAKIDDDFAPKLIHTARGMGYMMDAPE

[3] = system: T1, CopR1 (Pseudomonas putida KT2440), ORF:c26c307e; experiment: EMSA
[4] = system: T2, CopR2 (Pseudomonas putida KT2440), ORF:6041cc23; experiment: EMSA

Measured: binding

TGTAAAACGACGGCCAGTGGGTGGCGGTAATGAACAGGTGTTTCATGATGACTCCGGGAATACACAGCAGGATGAGGCCACATTAGCCGGGGGCGACTGGCAGCTACCTGACAGGCACATTACAACTTTGTCAGCTTGGGCGAGCGGGCACATCGTCACGTATCATTTCAGCCATCCCATTGCCCCTGTGCTAGCGGTAAGGCGGCGCCATAGGCTACGCACAATCTTTCAGAATATGGACAGCGCATGAAACTGCTGATCGTCGAAGACCAGGC (double strand) [copR1 (copRS1) promoter probe]
binds: all assays above

CTTTGACAAACGTACGGCGGGAGGGGTTGCGCAACATGGCGAGGCCTCATGCGGAATAGCCACGATGTTCGCTGCCGCCTGCTGTCAGGTAGCTGAGGTGCACATTACAGTGTTGTCAGCTTGCTGCTTCGTCGATGCGCAGGTCGCGCATCAGCAGGCCGTAGTCGAGGGCAACCTGTTCCGGGATCGGCAGATACACCACATGGCCATCGCCCGGTGCGACCTCGATGGCGTGCTGCTACTGGCCGTCGTTTTACA (double strand) [copA1 (copAB1) promoter probe]
binds: all assays above

TCGGTTCATCCTCAGCTACGAGTAGTTTCATGTGCTCAGCTTCCAAAGGTGTACACATCCAGTGTGCAGCAAAAAAAGGAGCTAACCAGAAGCTGACGTAAAAGTAATGTTGGTATCAGCCAGCTGTCAGGGCCTGCCGTCTACGGTCATTGAAGACGGGCATTGCAGTCACGCCTGCCGTTATCGGTAGCAATGGTTTCAACCCCCTGATGGAGAGAGTCCCATGAAATCGATCAGACTTTTGCTTGTGGCTACATCGATGCTGCTGACTGGCCGTCGTTTTACA (double strand) [copR2 (copRS2) promoter probe]
binds: all assays above

TGTAAAACGACGGCCAGTAGCCAGAGCCATAAACACGGGCAGCATGAGAACTGCTGATCCGAGCTTACAGAAATGTAATCACTCGGGAATCTTTTATGTGGCAGTTTCAAATCGCTTTCTCCCACTGTGACTTGCGCTTTCGAGCAAGTCCCTAAGACTTGTGGGATCCCCAAGGAAGCCGGGCCTGCGATCGAGCGGCCCGGATATCAGCGAATTATCTGACTGACTGGACACTACGGCATGCAAAGCAAAACCACGAGACGATCTTTCGTCAAAGGCCTGGC (double strand) [copA2 (copAB2) promoter probe]
binds: all assays above
